According to ChEMBL document CHEMBL2074146, “Transport of the sulfated, amidated bile acid, sulfolithocholyltaurine, into rat hepatocytes is mediated by Oatp1 and Oatp2” (Hepatology, 2002):

How the values were obtained:
Assay type in all cases: functional, cell-based
[1] = biological target: T1, Solute carrier organic anion transporter family member 1A4 (Rattus norvegicus, UniProt O35913); assay: (§1) TP_TRANSPORTER: uptake in Oatp2-expressing HeLa cells; conditions: human
T1 sequence (O35913 whole entry): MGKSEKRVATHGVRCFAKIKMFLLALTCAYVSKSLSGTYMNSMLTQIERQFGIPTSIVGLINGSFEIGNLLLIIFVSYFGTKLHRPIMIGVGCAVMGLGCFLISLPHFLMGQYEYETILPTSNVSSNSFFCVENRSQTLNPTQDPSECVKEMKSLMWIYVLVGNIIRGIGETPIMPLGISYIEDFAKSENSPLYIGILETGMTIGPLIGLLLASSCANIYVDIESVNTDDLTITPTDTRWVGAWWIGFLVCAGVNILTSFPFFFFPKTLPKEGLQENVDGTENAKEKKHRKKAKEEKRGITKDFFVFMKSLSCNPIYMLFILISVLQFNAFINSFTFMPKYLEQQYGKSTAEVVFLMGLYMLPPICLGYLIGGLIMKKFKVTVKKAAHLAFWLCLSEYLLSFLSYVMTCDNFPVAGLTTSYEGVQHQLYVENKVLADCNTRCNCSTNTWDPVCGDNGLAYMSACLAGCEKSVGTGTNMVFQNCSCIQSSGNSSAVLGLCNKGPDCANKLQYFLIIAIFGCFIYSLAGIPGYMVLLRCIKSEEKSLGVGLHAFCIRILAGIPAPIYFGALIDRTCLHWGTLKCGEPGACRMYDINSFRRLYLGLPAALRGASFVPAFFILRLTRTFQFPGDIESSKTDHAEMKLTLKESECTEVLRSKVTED

[2] = substrate: [H][C@]12CC[C@]3([H])[C@]([H])(CC[C@]4(C)C([C@H](C)CCC(=O)NCCS(=O)(=O)O)CC[C@@]34[H])[C@@]1(C)CC[C@@H](OS(=O)(=O)O)C2; assay: TP_TRANSPORTER: uptake in Oatp1-expressing HeLa cells
[3] = substrate: [H][C@]12CC[C@]3([H])[C@]([H])(CC[C@]4(C)C([C@H](C)CCC(=O)NCCS(=O)(=O)O)CC[C@@]34[H])[C@@]1(C)CC[C@@H](OS(=O)(=O)O)C2; assay: as §1

C[C@]12CC[C@@H]3c4ccc(O)cc4CC[C@H]3[C@@H]1CC[C@@H]2O[C@@H]1O[C@H](C(=O)O)[C@@H](O)[C@H](O)[C@H]1O [ESTRADIOL 17B GLUCURONIDE]
Activity [1]: substrate [+]

B1: Solute carrier organic anion transporter family member 1A1 (Rattus norvegicus) (protein)
chain: MEETEKKIATQEGRLFSKMKVFLLSLTCACLTKSLSGVYMNSMLTQIERQFDISTSVAGLINGSFEIGNLFFIVFVSYFGTKLHRPVVIGIGCVIMGLGCLLMSLPHFFMGRYEYETTISPTGNLSSNSFLCMENRTQTLKPTQDPAECVKEMKSLMWICVMVGNIIRGIGETPIVPLGISYIEDFAKSENSPLYIGILEMGKVAGPIFGLLLGSYCAQIYVDIGSVNTDDLTITPSDTRWVGAWWIGFLVCAGVNILTSIPFFFLPKALPKKGQQENVAVTKDGKVEKYGGQAREENLGITKDFLTFMKRLFCNPIYMLFILTSVLQVNGFINKFTFLPKYLEQQYGKSTAEAIFLIGVYSLPPICLGYLIGGFIMKKFKITVKKAAYLAFCLSVFEYLLFLCHFMLTCDNAAVAGLTTSYKGVQHQLHVESKVLADCNTRCSCSTNTWDPVCGDNGVAYMSACLAGCKKFVGTGTNMVFQDCSCIQSLGNSSAVLGLCKKGPECANRLQYFLILTIIISFIYSLTAIPGYMVFLRCVKSEEKSLGVGLHTFCIRVFAGIPAPVYFGALIDRTCLHWGTLKCGQRGACRMYDINSFRHIYLGLPIALRGSSYLPAFFILILMRKFQFPGDIDSSATDHTEMMLGEKESEHTDVHGSPQVENDGELKTKL
Km [2]: 12.6 µM

B2: Solute carrier organic anion transporter family member 1A4 (Rattus norvegicus) (protein)
chain: T1 sequence (O35913 whole entry)
Km [3]: 14.6 µM
